As a reminder, the stoichiometry N is the number of molecules, sites or subunits per partner or assembly. By Kd is commonly meant the free concentration of one partner at which half of the binding sites on the other are occupied at equilibrium, for simple one-to-one binding.

B2: a proliferation-inducing ligand (APRIL) homotrimer, recombinant (ligand, human, UniProt O75888 110-250, looked up)
chain: KQKKQHSVLHLVPINATSKDDSDVTEVMWQPALRRGRGLQAQGYGVRIQDAGVYLLYSQVLFQDVTFTMGQVVSREGQGRQETLFRCIRSMPSHPDRAYNSCYSAGVFHLHQGDILSVIIPRARAKLNLSPHGTFLGFVKL
notes: APRIL, recombinant soluble homotrimer; Six lots were used for SPR; also called homotrimeric APRIL
B4: atacicept (Fc fusion, human, UniProt O14836 1-165, looked up)
chain: MSGLGRSRRGGRSRVDQEERFPQGLWTGVAMRSCPEEQYWDPLLGTCMSCKTICNHQSQRTCAAFCRSLSCRKEQGKFYDHLLRDCISCASICGQHPKQCAYFCENKLRSPVNLPPELRRQRSGEVENNSDNSGRYQGLEHRGSEASPALPGLKLSADQVALVYS
notes: also called TACI-Ig; soluble receptor fusion protein of TACI

Common to all, as to conditions: both partners purified
In experiment [1] the target is T1, Hisx6-zz12.6 form of BLyS (amino acids 141-285) (human, UniProt Q9Y275 141-285).
T1 construct: The BLyS chain of the heterotrimer m3; the zipper itself may help to hold the chains together; also called BLyS NH6 zz12.6; His-zz12.6 BLyS; source: CHO DXB11, co-expressed with Flag-zz12.6 APRIL, purified from conditioned media (Ni-NTA, heparin, SEC); not shown: His6, N-terminal, kept; zz12.6 trimerization domain, N-terminal, kept
T1 sequence (Q9Y275 141-285): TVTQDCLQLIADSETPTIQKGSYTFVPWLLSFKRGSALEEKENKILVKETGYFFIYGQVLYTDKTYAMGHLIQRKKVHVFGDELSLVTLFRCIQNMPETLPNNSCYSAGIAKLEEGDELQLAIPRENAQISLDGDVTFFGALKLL
Kind of experiment: SEC-MALS; heterotrimer co-expressed in CHO, purified by Ni-NTA (His on BLyS), heparin and SEC; ratio of the chains by Western blot (anti-His, anti-Flag), confirmed by SEC-MALS.

The target of the experiment “atacicept” is B4. Description: SPR; Biacore 3000; atacicept, BCMA-Ig and BAFF-R-Ig covalently immobilized on a CM4 chip; ligands ~0.05 to 20 nMol/L flowed at 50 ul/min, 25 C; 20 mmol/L sodium phosphate, 150 mmol/L NaCl, 0.05% polysorbate 20, pH 7.5; KD from ka and kd, global fit to a 1:1 model; stoichiometry not determined. A general note: SPR reads the build-up and loss of mass on a sensor chip optically.

Experiment [2] deals with T2, recombinant BLyS/APRIL heterotrimer (Hisx6-zz12.6 BLyS with Flag-zz12.6 APRIL), predominantly 2 APRIL to 1 … (human, UniProt O75888 110-250; Q9Y275 141-285).
T2 construct: human APRIL amino acids 110-250, downstream of the otPA leader, Flag and the proprietary zz12.6 trimerization domain; The preparation holds a small fraction of 1 APRIL to 2 BLyS (AB2) heterotrimers; also called heterotrimers; HT; not shown: Flag, N-terminal, kept; zz12.6 trimerization domain, N-terminal, kept; His6, N-terminal, kept; copies: 2 + 1
T2 sequence (Q9Y275 141-285, chain 2 of 2, one chain of several): as the sequence (Q9Y275 141-285) above
The description is as above.

For experiment [3], the target named is B2. The experiment is described as above.

B1: Flag-zippered (zz) 12.6 form of APRIL (amino acids 110-250) (domain or fragment, human, UniProt O75888 110-250, looked up)
chain: KQKKQHSVLHLVPINATSKDDSDVTEVMWQPALRRGRGLQAQGYGVRIQDAGVYLLYSQVLFQDVTFTMGQVVSREGQGRQETLFRCIRSMPSHPDRAYNSCYSAGVFHLHQGDILSVIIPRARAKLNLSPHGTFLGFVKL
notes: human APRIL amino acids 110-250, downstream of the otPA leader, Flag and the zz12.6 trimerization domain; The APRIL chain of the heterotrimer m3; the zipper itself may help to hold the chains together; also called Flag-zz12.6 APRIL; APRIL NF zz12.6; source: CHO DXB11, co-expressed with Hisx6-zz12.6 BLyS, purified from conditioned media (Ni-NTA, heparin, SEC); not shown: Flag, N-terminal, kept; …
With B1, the “stoichiometry N” value in experiment [1] came to 2 APRIL per BLyS.

In the experiment with atacicept, B2 displayed a Kd of 0.1 to 0.2 nM.

B3: B-cell maturation antigen (BCMA)-immunoglobulin (Ig) (Fc fusion, UniProt Q02223 1-54, looked up)
chain: MLQMAGQCSQNEYFDSLLHACIPCQLRCSSNTPPLTCQRYCNASVTNSVKGTNA
notes: BCMA, soluble receptor-Fc fusion protein; Construct not described in the main text; Additional file 1 may describe it; also called BCMA-Ig
For the molecule B3, the Kd in experiment [2] was 0.01 nM; in experiment [3], 0.0001 to 0.0003 nM.

Consider B4, for which the dissociation constant Kd in experiment [2] came to 0.4 nM.

These data come from PMC2888197, “B-lymphocyte stimulator/a proliferation-inducing ligand heterotrimers are elevated in the sera of patients with autoimmune disease and are neutralized by atacicept and B-cell maturation antigen-immunoglobulin” (Arthritis Research & Therapy, 2010).
